# Measured values as given in PMC5732959, “BnaA.bZIP1 Negatively Regulates a Novel Small Peptide Gene, BnaC.SP6, Involved in Pollen Activity”.
# Changes are numbered by the printed parent chain.
# T1: BnaA.bZIP1-His (Brassica napus, UniProt A0A078IFD5 1-139)
# T1 sequence: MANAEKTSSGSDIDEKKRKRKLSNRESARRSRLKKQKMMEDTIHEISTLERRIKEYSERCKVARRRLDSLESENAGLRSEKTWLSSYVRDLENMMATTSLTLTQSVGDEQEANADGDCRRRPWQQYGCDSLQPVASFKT
# B1: p59 (dsDNA)
# DNA 1: AACGAAAGCCACCTCACGTCGTGCTATTTTCGGTGTAACCTTAACGGTGGATCTTTAAA
# DNA 2: TTTAAAGATCCACCGTTAAGGTTACACCGAAAATAGCACGACGTGAGGTGGCTTTCGTT
# B2: mp59 (dsDNA)
# DNA 1: B1 DNA 1 with A16T, C17A, G18T, T19G, C20A
# DNA 2: B1 DNA 2 with G40T, A41C, C42A, G43T, T44A
# B3: p59 unlabeled competitor (dsDNA)
# DNA 1: B1 DNA 1
# DNA 2: B1 DNA 2
# Key:
# BnaA.bZIP1-His [1] = target: T1, BnaA.bZIP1-His; experiment: EMSA; EMSA: 10 ul with 2 ul 5x EMSA/Gel-Shift Binding Buffer (Beyotime), 30 nM Cy5 probe, 30 min at 25 C; 6% native PAGE, 0.5x TBE pH 8.3, 4 C; settings: protein: recombinant, tags: His, pET-32a fusion (N-terminal vector tag), blunt
# BnaA.bZIP1-His [2] = target: T1, BnaA.bZIP1-His; experiment: competition; unlabeled probe at 200x, 400x, 800x reduces shift of Cy5-p59; EMSA: 10 ul with 2 ul 5x EMSA/Gel-Shift Binding Buffer (Beyotime), 30 nM Cy5 probe, 30 min at 25 C; 6% native PAGE, 0.5x TBE pH 8.3, 4 C; settings: protein: recombinant; tags: His; pET-32a fusion (N-terminal vector tag); blunt
binder,measurement,setting,value
B1,binding result,BnaA.bZIP1-His [1]; label: Cy5 (p59-CY5-F strand),binds
B2,binding result,BnaA.bZIP1-His [1]; label: Cy5 (mp59-CY5-F strand),no binding
B3,binding result,BnaA.bZIP1-His [2],binds
